Source: paper PMC3078936, “Directed Evolution Reveals the Binding Motif Preference of the LC8/DYNLL Hub Protein and Predicts Large Numbers of Novel Binders in the Human Proteome” (PLoS ONE, 2011)
Ends that are not written are not given here.

Tests used:
[1] = target: T1, LC8 dynein light chain DYNLL1 (residues 1-89) (human (from the printed UniProt …, UniProt P63167 1-89)); assay: ITC; 15 µM DYNLL1 in the cell, 30-40 injections of 3-5 µl peptide; PBS with 3 mM 2-mercaptoethanol, pH 7.4; 299 K; A + B to AB model; conditions: both partners purified
T1 construct: DYNLL1, residues 1-89, UniProt P63167, cloned into pET-15b; The methods name thrombin removal of the His tag only for DYNLL2; also called DYNNL1; source: E. coli BL21(DE3)Star, purified (Ni IMAC, HiTrapQ anion exchange)
T1 sequence (P63167 whole entry, the tested form may be a part): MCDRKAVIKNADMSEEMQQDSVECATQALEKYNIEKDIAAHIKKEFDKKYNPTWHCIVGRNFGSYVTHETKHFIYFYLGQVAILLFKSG

[2] = target: T1, LC8 dynein light chain DYNLL1 (residues …); assay: as above; conditions: both partners purified; remark: listed apart in the source
[3] = target: the molecule itself; assay: crystal structure; DYNLL2 (1.2 mM dimer) with 1.3 mM dimerized-VSRGTQTE; hanging drop, 293 K, 20% PEG8000, 0.2 M MgCl2, 0.1 M TRIS pH 7.0

B1: Ac-GSRGTQTE (peptide)
peptide: Ac-GSRGTQTE
notes: phage-selected consensus with Gly at position -5; also called Gly-5 version of the in vitro evolved consensus; source: synthetic peptide
- stoichiometry N [1]: 1
- Kd [2]: 1640 nM
- dH [2]: -16.7 kcal/mol

B2: Ac-VSRGTQTE, in vitro evolved consensus peptide (peptide)
peptide: Ac-VSRGTQTE
notes: also called phage selected consensus; source: synthetic peptide
- stoichiometry N [1]: 1
- Kd [2]: 80 nM
- dH [2]: -18.1 kcal/mol

B3: Ac-SRGTQTE (peptide)
peptide: Ac-SRGTQTE
notes: phage-selected consensus without position -5; also called Ac-5 version of the in vitro evolved consensus; source: synthetic peptide
- stoichiometry N [1]: 1
- Kd [2]: 15200 nM
- dH [2]: -11.6 kcal/mol

B4: Ac-GDKSTQTD (peptide)
peptide: Ac-GDKSTQTD
notes: natural consensus extended by Gly at position -5; also called Gly-5 version of the natural consensus; source: synthetic peptide
- stoichiometry N [1]: 1
- Kd [2]: 560 nM
- dH [2]: -16.8 kcal/mol

B5: Ac-VDKSTQTD (peptide)
peptide: Ac-VDKSTQTD
notes: natural consensus extended by Val at position -5; also called Val-5 version of the natural consensus; source: synthetic peptide
- stoichiometry N [1]: 1
- Kd [2]: 70 nM
- dH [2]: -15.6 kcal/mol

B6: dimeric-… (Leu-zipper dimerized … peptide) (peptide)
chain: not shown
notes: first two residues (Gly-7, Ser-6) come from the recombinant construct; leucine zipper of yeast GCN4, residues 250-281; PDB 3P8M holds the construct; not shown: GST, N-terminal, cleaved
- binding result [3]: binds
- Kd [2]: < 7 nM
- dH [2]: -15.5 kcal/mol

B7: EML3 (8-94), recombinant fragment (domain or fragment, human, UniProt Q32P44 8-94, looked up)
chain: GDGPAREALQSLSQRLRVQEQEMELVKAALAEALRLLRLQVPPSSLQGSGTPAPPGDSLAAPPGLPPTCTPSLVSRGTQTETEVELK
notes: also called EMAP-3; source: recombinant
- Kd [2]: 50 nM
- dH [2]: -7.74 kcal/mol

B8: Ac-DKSTQTD, naturally evolved consensus peptide (peptide)
peptide: Ac-DKSTQTD
notes: also called natural consensus; Ac-5 version of the natural consensus; source: synthetic peptide
- stoichiometry N [1]: 1
- Kd [2]: 5600 nM
- dH [2]: -11.7 kcal/mol
